In assay [1] the target is T1, PADI4 (peptidyl-arginine deiminase 4), recombinant, dimeric (human, UniProt Q9UM07 1-663). In words: other fluorescence titration.
The target of assay [2] is T1, PADI4 (peptidyl-arginine deiminase 4), …. Kind of assay: ITC. A general note: ITC needs no label: the signal is the heat of the interaction.

“And” between values parts separate entries of the source, which are not always exact repeats. Identical values can stand only once.

T1 sequence (Q9UM07 whole entry): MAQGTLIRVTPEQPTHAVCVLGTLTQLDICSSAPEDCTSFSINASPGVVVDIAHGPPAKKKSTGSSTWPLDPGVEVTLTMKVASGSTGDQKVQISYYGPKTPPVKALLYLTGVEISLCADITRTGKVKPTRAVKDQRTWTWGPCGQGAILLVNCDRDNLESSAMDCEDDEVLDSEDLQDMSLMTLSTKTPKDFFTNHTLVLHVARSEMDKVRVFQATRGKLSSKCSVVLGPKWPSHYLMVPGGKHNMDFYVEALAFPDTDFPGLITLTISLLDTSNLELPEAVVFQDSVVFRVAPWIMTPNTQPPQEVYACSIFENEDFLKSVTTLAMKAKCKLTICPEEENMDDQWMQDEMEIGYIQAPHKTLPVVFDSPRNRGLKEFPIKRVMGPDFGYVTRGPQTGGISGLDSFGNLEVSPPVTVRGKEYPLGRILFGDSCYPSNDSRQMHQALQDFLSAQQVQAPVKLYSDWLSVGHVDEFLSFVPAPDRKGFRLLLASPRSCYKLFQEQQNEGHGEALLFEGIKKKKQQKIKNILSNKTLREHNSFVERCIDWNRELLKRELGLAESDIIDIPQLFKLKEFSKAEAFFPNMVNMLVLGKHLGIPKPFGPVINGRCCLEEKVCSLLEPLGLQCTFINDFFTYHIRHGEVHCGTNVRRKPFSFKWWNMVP

B1: His-tagged N-MDM2 (N-terminal region of MDM2, residues 6-125 of the intact protein) (domain or fragment, UniProt Q00987 6-125, looked up)
chain: MSVPTDGAVTTSQIPASEQETLVRPKPLLLKLLKSVGAQKDTYTMKEVLFYLGQYIMTKRLYDEKQQHIVYCSNDLLGDLFGVPSFSVKEHRKIYTMIYRNLVVVNQQESSDSGTSVSEN
modifications: 15N-labelled in the NMR experiment only
The term Kd denotes the free concentration of one partner at which half of the binding sites on the other are occupied at equilibrium, for simple one-to-one binding. Take B1: the Kd in assay [1] is 5 µM and ~6 µM; in assay [2], 1 ± 0.2 µM.
